Experimental data published in patent CN115925884A (SUN YAT SEN UNIV CANCER CENTER SUN YAT SEN UNIV AFFILIATED …, dated 2023).

Target: T1, EBV gB重组蛋白 (recombinant EB virus gB protein with C-terminal 6xHis tag) (EB病毒 (Epstein-Barr virus), UniProt P0C762 23-683, biotin label in the BLI assay (gB-Biotin), site not stated)
T1 construct: Biotinylated for BLI; unlabelled in the Western blot; also called gB蛋白; gB抗原
T1 chain: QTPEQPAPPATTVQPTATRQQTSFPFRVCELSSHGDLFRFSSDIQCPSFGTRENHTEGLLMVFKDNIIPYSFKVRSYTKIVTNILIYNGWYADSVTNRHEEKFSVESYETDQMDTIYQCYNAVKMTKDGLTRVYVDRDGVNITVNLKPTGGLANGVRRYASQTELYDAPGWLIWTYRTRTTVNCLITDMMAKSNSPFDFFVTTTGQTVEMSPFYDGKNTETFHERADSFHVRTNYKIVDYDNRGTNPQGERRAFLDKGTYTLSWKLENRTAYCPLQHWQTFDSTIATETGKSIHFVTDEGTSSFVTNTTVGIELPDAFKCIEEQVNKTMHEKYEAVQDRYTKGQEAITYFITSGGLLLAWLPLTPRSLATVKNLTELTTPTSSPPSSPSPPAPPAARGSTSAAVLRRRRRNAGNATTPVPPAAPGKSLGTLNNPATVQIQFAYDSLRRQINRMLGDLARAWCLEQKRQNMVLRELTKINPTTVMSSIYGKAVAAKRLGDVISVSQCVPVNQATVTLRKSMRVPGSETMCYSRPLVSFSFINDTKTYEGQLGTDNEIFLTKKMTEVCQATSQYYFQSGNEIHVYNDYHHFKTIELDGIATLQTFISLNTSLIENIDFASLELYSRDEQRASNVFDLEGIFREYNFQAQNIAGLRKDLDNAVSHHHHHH
Test: BLI, biotinylated gB on SA biosensor, 0-200 nM antibody in solution

B1: 4F10抗体 (monoclonal antibody against EB virus gB antigen) (antibody, V domains shown)
VH: QITLKESGAEMKKPGSSVKVSCKSSDTFKSYGIGWVRQAPGQGLEWMGGVIPVTGTRSYPQKFQGRVTITADESTSTAYMELSRLRSEDTAVYYCGRYMSYLYGMDVWGQGTTVTVSS
VL: DIVLTQTPLSSPVTLGQPASISCRSSQGLVYSDGDTYLNWFQQRPGQSPRRLIYKVSNRDSGVPDRFSGSGSGTDFTLRISRVEAEDVGVYYCMQGAHWPPTFGQGTKLEIK
notes: For flow cytometry the antibody carried a '403' fluorescent label; also called 抗体4F10
Binder B1 has a Kd of 1 pM.
